Assay results: patent US20240150462A1 (UNIVERSITY HEALTH NETWORK, published 2024)
Where a chain is given by its changes, count along the chain named.

B1: 4H5 (antibody, V domains shown)
VH: QIQLQQSGPELVKPGASVKISCKASGYTFTDYYINWVKQRPGQGLEWIGWIYPGGDNTKYNEKFKDKATLTVDTSSSTTYMQLSSLTSEDSAVYFCARFEDKYSSNYWFAYWGQGTLVTVSA
VL: DILLTQSPAILSVSPGERVSFSCRASQYIGTSIHWYQQRTNGSPRLLIKYASESISGIPSRFSGSGSGTDFTLSINSVESEDVADYYCQQSNRWPFTFGSGTKLEIKR
notes: Entries are printed with leader peptide and part of the mouse constant region; also called LILRB1 antibody 4H5
B2: 6A11 (antibody, V domains shown)
VH: B1 VH with G55S, D56G, D66G, T79A, Y103H
VL: B1 VL with V83I, R93S
notes: Entries are printed with leader peptide and part of the mouse constant region; also called LILRB1 antibody 6A11
B3: 1B10 (antibody, V domains shown)
VH: QVQLQQPGAELVKPGASVKLSCKASGYTFTNYWVQWVKQRPGQGLEWIGMIHPNSGSTNSNEKFKNKATLTVDRSSSTAYMQLSRLTSEDSAVYYCARGDDGYLYYFDYWGQGTTLTVSS
VL: QIVLTQSPALMSASPGEKVTMTCSASSSVSHMYWYQQKPRSSPKPWIYLTSNLASGVPARFSGSGSGTSYSLTISNMEAEDAATYYCQQWSSYAFTFGSGTKLEIKR
notes: The entries called 'variable region' are printed with the leader peptide and part of the mouse constant region; also called LILRB1 antibody 1B10
B4: 3E12 (antibody, V domains shown)
VH: QVQLQQSGAELMKPGASVKLSCKATGYTFTGYWIEWVKQRPGHGLEWIGEILLGSGNTNYNENFKGKATLTADTSSNTAYMQLSSLTTEDSAIYYCASTHDGYWGQGTTLTVSS
VL: QFILTQSPAIMSASPGEKVTITCSASSSVSYMHWFQQKPGTSPKLWIYSTSNLASGVPARFSGSGSGTSYSLTISRMEAEDAATYYCQRRSSYPFTFGSGTKLEIKR
notes: Entries are printed with leader peptide and part of the mouse constant region; also called LILRB1 antibody 3E12
B5: 6A6 (antibody, V domains shown)
VH: QVQLQQSGPELVKPGASVKISCKASGYSFTSSYIHWVKQRPGQGLEWIGWIYPGSGNTKYNERFKGKATLTADTSSSTAYMHLSSLTSEDSAVYYCARNYGTSYGWYFDVWGTGTTVTVSS
VL: DIVMTQSQKFMSTTVGDRVSITCKASQNVGTAVAWYQQKPGQSPKLLIYSLSNRYTGVPDRFTGSGSGTDFTLTISNMQSEDLTDYFCQQYSSYPLTFGAGTKLELKR
notes: Entries are printed with leader peptide and part of the mouse constant region; also called LILRB1 antibody 6A6
B6: 5E11 (antibody, V domains shown)
VH: QVQLKESGPGLVAPSQSLSITCTVSGFSLSSYGVNWVRQPPGKGLEWLGVIWGDGSTNYHSALISRLSISKDNSKSQVFLKLNSLQTDDTATYYCAKPNWDYYAMEYWGQGTSVTVSS
VL: DIQMTQTTSSLSASLGDRVTITCRASQDISNFLNWYQQKPDGPVKLLIYYTSRLHSGVPSRFSGSGSGTDYSLTISNLEQEDIATYFCQQGNTLPWTFGGGTKLEIKR
notes: Entries are printed with leader peptide and part of the mouse constant region; also called LILRB1 antibody 5E11
B7: 5H12 (antibody, V domains shown)
VH: B6 VH
VL: B5 VL with D1G, T13S, T31A, A34I, L51A, P59L, T84A, L96W, A100G, L106I
notes: Entries are printed with leader peptide and part of the mouse constant region; also called LILRB1 antibody 5H12
B8: 1C8 (antibody, V domains shown)
VH: EVKLVESGGGLVQPGGSLKLSCAASGFTFSDYYMYWVRQTPEKRLEWVAYISNGGGNTYYPDTVKGRFTISRDNAKNTLYLQMSRLKSEDTAMYYCARQLEDWYFDVWGTGTTVTVSS
VL: DIVMTQSHKFMSTSVGDRVSITCKASQDVSTAVAWSQQKPGQSPKLLVYWASARHTGVPDRFTGSGSGADYTLTISSVQAEDLALYYCQQHFSTPLTFGAGTKLELKR
notes: Entries are printed with leader peptide and part of the mouse constant region; also called LILRB2 antibody 1C8
B9: 2G9 (antibody, V domains shown)
VH: B8 VH with Q99N, L100R, E101D
VL: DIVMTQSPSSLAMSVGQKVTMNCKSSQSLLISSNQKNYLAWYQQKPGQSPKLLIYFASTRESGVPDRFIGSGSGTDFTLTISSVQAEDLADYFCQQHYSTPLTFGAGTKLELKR
notes: Entries are printed with leader peptide and part of the mouse constant region; also called LILRB2 antibody 2G9
B10: 6B7 (antibody, V domains shown)
VH: QIQLVQSGPELKKPGETVKISCKASGYTFTNYGLSWVKQAPGKGLKWMGWINTYSGVTTYADDFKGRFAFSLETSASTAYLQINNLKSEDTATYFCARRSYDYSHYYAMDYWGQGTSVTVSS
VL: ETTVTQSPASLSVATGEKVTIRCITSTDIDDDINWYQQKPGEPPKFLISEGNTLRPGVPSRFSSSGYGTDFVFTIENTLSEDVADYYCLQSNNMPYTFGGGTKLEIKR
notes: Entries are printed with leader peptide and part of the mouse constant region; also called LILRB1 antibody 6B7
B11: 1A8 (antibody, V domains shown)
VH: EVQLVESGGDLVKPGESLKLSCAASGFSFSSYDMSWVRQTPDKRLEWVTTISSGGDYTYFPDILKGRFTISRDNAKHTLYLQLSSLKSEDTAMYYCARWDSNFPHWYFDVWGTGTTVTVSS
VL: DIVLTQSPASLAVSLGQRATISCRASESVDKSGISFLHWYQQKPRQPPKLLIYRASNLESGIPGRFSGSGSRTDFTLSINPVEPDDVATYYCQQSNKDPFTFGGGTKLEIKR
notes: Entries are printed with leader peptide and part of the mouse constant region; also called LILRB2 antibody 1A8
B12: 1G3 (antibody, V domains shown)
VH: EVQLVESGGDLVKPGGSLKLSCAASGFTFSSYDMSWVRQTPDKRLEWVATISSGGSYTFYPDSVKGRFTISRDNAKNTLSLQMSSLKSEDTAIYYCARWDSNYLRWFFDVWGTGTTVTVSS
VL: B11 VL with K31N, S32N, L37M, R45G, P47S, G64A, S78T, P84T, K97D
notes: Entries are printed with leader peptide and part of the mouse constant region; also called LILRB2 antibody 1G3
B13: 10F5 (antibody, V domains shown)
VH: B12 VH with G55A, F59Y, S80Y, N102K, F107Y
VL: B11 VL with K31N, S32N, L37M, R45G, P47S, Y53S, G64A, S78T, P84T, K97E
notes: Entries are printed with leader peptide and part of the mouse constant region; also called LILRB2 antibody 10F5
B14: 5E6 (antibody, V domains shown)
VH: QVQLQQSAAELVKPGASVKISCKVSGQSFTDHTIHWMKQRPEQGLEWIGYIFPRDGFTEYNERFKGKATLTADKSSSTAYMHLNSLTSEDSAVYFCAGNWDALDYWGPGTSVTVSS
VL: DIVLTQSPATLSVTPGDSVSLSCRASQSISKYLHWYQQKSHESPRLLIKYVSQSISGIPSRFSGSGSGTDFTLSINSVETEDFGIYFCQQSNSWPLTFGAGTKLELKR
notes: Entries are printed with leader peptide and part of the mouse constant region; also called LILRB1 antibody 5E6
B15: 4D5 (antibody, V domains shown)
VH: QVQLQQPGAELVRPGSSVKLSCKASGYTFTSYWMDWVKQRPGQGLEWIGNIYPSDSATHYNQKFKDKATLTVDKSSSTAYMHLSSLTSEDSAVYYCARGLLQYFDVWGTGTSVTVSS
VL: DIQMTQSPASLSVSVGETVTITCRASENIYSNLAWYQQKQGKSPQLLVYGATNLADGVPSRFSGSGSGTQYSLKINSLQSEDFGSYYCQHFWGIPWTFGGGTKLEIKR
notes: Entries are printed with leader peptide and part of the mouse constant region; also called LILRB1 antibody 4D5
B16: 4A11 (antibody, V domains shown)
VH: QVQLKQSGAELVRPGTSVKLSCKASGYTFTDYYINWVKQRPGQGLEWIARIYPGSGNTFYNEKFQDKATLTAEKSSSTAYMQLSSLTSEDSAVYFCANTPSYGSSHWYFDVWGTGTTVTVSS
VL: DIVMTQSHKFMSTSVGDRVSITCKASQDVNTAVAWYQQKPGQSPKLLIYWASTRHTGVPDRFTGSGSGTDFTLTISNVQSEDLADYFCQQYSTYPRTFGGGTKLEIKR
notes: Entries are printed with leader peptide and part of the mouse constant region; also called LILRB1 antibody 4A11
B17: 5B3 (antibody, V domains shown)
VH: QVQLKESGPGLVAPSQSLSITCTVSGFSLTSYGIDWVRQPPGKGLEWLGVIWGGGNTNYNSALMSRLTISKDNSKSQVFLKMNSLQTDDTAMYYCAKANWDSYAMDYWGQGTSVTVSS
VL: DIQMNQSPSSLSASLGDTITITCHASQNINFWLNWYQQKPGNIPKLLIYKASNLHTGVPSRFSGSGSGTGFTLTISSLQPEDIATYYCQQGQSYPLTFGGGTKVEIKR
notes: Entries are printed with leader peptide and part of the mouse constant region; also called LILRB1 antibody 5B3
B18: 4C2 (antibody, V domains shown)
VH: QVQLQQPGAALVKPGASVKLSCKASGYTFTSYWMHWVKQRPGQGLEWIGMIHPNSGSTNYNEKFRSEATLTVDKSSSTVYMQLSSLTSEDSAVYYCARSGDAYYDGLDYWGQGTSVTVSS
VL: B17 VL with S26R, F31V, N34S, P59S, L96W, V104L
notes: Entries are printed with leader peptide and part of the mouse constant region; also called LILRB1 antibody 4C2
B19: 2F10 (antibody, V domains shown)
VH: EVQLQQSGPELVKPGASVKISCKASGYTFTDDYMNWVKQSHGKSLEWIGDINPTNGDTNYNQKFKGKATLTVDKSSSTAYMELRGLTSEDSAVYYCARGSSPFTYWGQGTLVTVSA
VL: DIQMTQTTSSLSASLGDRVTISCSASQGISNYLNWYQQKPDGTVKLLIYYTSSLYSGVPSRFSGSGSGTDYSLTISNLEPEDIATYYCQQYSKLPWTFGGGTKLEIKR
notes: Entries are printed with leader peptide and part of the mouse constant region; also called LILRB2 antibody 2F10
B20: 4A10 (antibody, V domains shown)
VH: QVQLQQPGAELVKPGASVKLSCKASGYTFTNYWMYWVKQRPGQGLEWIGMIHPNSDSTNYNEKFKNKATLTVDRSSSTAYMQLSSLTSEDSAVYCCARGEDNYDYVMDYWGQGTSVTVSS
VL: DIVMTQAAPSVPVTPGESVSISCRSSKSLLHSYGNTHLYWFLQRPGQSPQLLIYRMSNLASGVPDRFSGSGSGTAFTLRISRVEAEDVGVYYCMQHLEYPLTFGAGTKLELKR
notes: Entries are printed with leader peptide and part of the mouse constant region; also called LILRB1 antibody 4A10
B21: 3B3 (antibody, V domains shown)
VH: QVQLQQPGAELVKPGASVKMSCKASDYTFTSYWITWVKKRPGQGLEWIGDIYPGSDTTNYNEKFKNKATLTVDTSSSTAHMQLSSLTSEDSAVYYCTRPLYQGISPWFAYWGQGTLVTVSA
VL: NIVMTQSPKSMSMSVGERVTLSCKASENVGTYVSWYQQKPEQSPKLLIYGASNRYTGVPDRFTGSGSATDFTLTISSVQAEDLADYHCGQSYSYPFTFGSGTKLEIKR
notes: Entries are printed with leader peptide and part of the mouse constant region; also called LILRB2 antibody 3B3

How the values were obtained:
[1] = target: T1, Recombinant human Fc-tagged extracellular domain of LILRB1 (human, UniProt Q8NHL6 24-461); assay: SPR, Biacore X100; LILRB1-Fc amine-coupled to CM5 chip, antibody injected at 3.7-300 nM
T1 construct: extracellular domain; Bought from R&D Systems; also called LILRB1-Fc; not shown: Fc tag
T1 sequence (Q8NHL6 24-461): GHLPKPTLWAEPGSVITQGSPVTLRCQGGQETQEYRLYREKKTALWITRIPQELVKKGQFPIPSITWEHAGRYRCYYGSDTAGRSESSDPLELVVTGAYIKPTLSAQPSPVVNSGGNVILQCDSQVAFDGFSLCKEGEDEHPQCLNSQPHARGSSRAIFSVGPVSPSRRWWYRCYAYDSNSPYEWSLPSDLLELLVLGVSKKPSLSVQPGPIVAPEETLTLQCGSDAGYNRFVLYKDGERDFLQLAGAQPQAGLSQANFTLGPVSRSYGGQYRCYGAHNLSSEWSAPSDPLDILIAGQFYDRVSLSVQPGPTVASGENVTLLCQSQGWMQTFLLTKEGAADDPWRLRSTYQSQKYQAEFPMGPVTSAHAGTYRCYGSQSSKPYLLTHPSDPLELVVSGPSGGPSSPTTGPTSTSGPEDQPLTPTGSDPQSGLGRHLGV
Experimental: (§1) Dissociation constants (Kd) for mouse anti-human LILRB1 and LIRB2 antibodies were determined using a Biacore X100 surface plasmon resonance instrument (Cytivia). Recombinant human Fc-tagged extracellular domains of LILRB1 or LILRB2 (LILRB1-Fc or LILRB2-Fc; R&D Systems) were immobilized on a Biacore CM5 biosensor chip by amine coupling at a density of 40-50 relative units (RU). Purified mouse monoclonal antibodies were injected over the biosensor in a concentration series of 3.7, 11, 33, 100, and 300 nM in HBS-EP buffer (10 mM HEPS pH 7.4, […], 3 mM EDTA, 0.005% v/v Surfactant P20) at a flow rate of 50 μL/min. Regeneration of the chip was achieved by a 30 s injection of 10 mM glycine-HCl, pH 1.7. Affinity parameters were determined by fitting response data using the accompanying Biacore X100 analysis software.

[2] = target: T2, Recombinant human Fc-tagged extracellular domain of LILRB2 (human, UniProt Q8N423 22-460); assay: SPR, Biacore X100; LILRB2-Fc amine-coupled to CM5 chip, antibody injected at 3.7-300 nM
T2 construct: extracellular domain; Bought from R&D Systems; also called LILRB2-Fc; not shown: Fc tag
T2 sequence (Q8N423 22-460): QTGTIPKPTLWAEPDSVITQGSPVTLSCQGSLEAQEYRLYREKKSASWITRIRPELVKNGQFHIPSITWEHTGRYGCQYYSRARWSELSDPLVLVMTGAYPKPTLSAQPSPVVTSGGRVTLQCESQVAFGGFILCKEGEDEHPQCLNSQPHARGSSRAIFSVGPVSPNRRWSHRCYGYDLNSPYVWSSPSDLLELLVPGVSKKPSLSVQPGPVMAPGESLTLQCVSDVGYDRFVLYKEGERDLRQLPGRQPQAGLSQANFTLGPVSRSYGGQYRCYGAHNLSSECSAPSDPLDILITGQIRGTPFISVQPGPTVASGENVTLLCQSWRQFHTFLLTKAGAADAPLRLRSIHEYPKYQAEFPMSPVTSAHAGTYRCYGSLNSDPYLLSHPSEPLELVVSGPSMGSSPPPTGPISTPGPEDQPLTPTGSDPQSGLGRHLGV
Experimental: as §1

Binder | -log(Kd) [1] | -log(Kd) [2]
B1 | 12.6 | –
B2 | 12.4 | –
B3 | 8.13 | –
B4 | 11.6 | –
B5 | 7.98 | –
B6 | < 3 | –
B7 | 8.26 | –
B8 | – | 7.64
B9 | – | 8.33
B10 | 6.58 | –
B11 | – | 7.79
B12 | – | 8.05
B13 | – | 7.95
B14 | 8.2 | –
B15 | 7.89 | –
B16 | 7.76 | –
B17 | 8.76 | –
B18 | 12.7 | –
B19 | – | 8.4
B20 | 7.89 | –
B21 | – | 8.01
